Measurements: the supplement of paper PMC7877785
± gives the uncertainty stated by the source.

Test: self-splicing fitness, log relative to wild type (ln ratio); higher = more splicing; Tetrahymena group I intron in knt gene, E. coli kanamycin selection, DiMSum; sequences stand for … in CUCUCU…GGAGGGAAAAGUUAUCAGGCAUGCACCUGGUAGCUAGUCUUUAAACCAAUAGAUUGCAUCGGUUUAAAAGGCAAGACCGUCAAAUUGCGGGAAAGGGGUCAACAGCCGUUCAGUACCAAGUCUCAGGGGAAACUUUGAGAUGGCCUUGCAAAGGGUAUGGUAAUAAGCUGACGGACAUGGUCCUAACCACGCAGCCAAGUCCUAAGUCAACAGAUCUUCUGUUGAUAUGGAUGCAGUUCACAGACUAAAUGUCGGUCGGGGAAGAUGUAUUCUUCUCAUAAGAUAUAGUCGGACCUCUCCUUAAUGGGAGCUAGCGGAUGAAGUGAUGCAACACUGGAGCCGCUGGGAACUAAUUUGUAUGCGAAAGUAUAUUGAUUAGUUUUGGAGUACUCGUGGUCG
Summary of the method: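 Pooled colonies went to amplicon sequencing on an Illumina HiSeq 2500 after six replicate transformations. The plates were LB agar with 100 μg/mL carbenicillin, 50 μM IPTG and 0.2% rhamnose, with or without 25 μg/mL kanamycin, incubated overnight at 37°C or 30°C. The E. coli BL21(DE3) library had all eight P1ex-region intron nucleotides randomised, the intron placed in the knt kanamycin-resistance gene on pET-22b(+). DiMSum fitness is the error-weighted combination of replicate fold changes, kanamycin against none, normalised to wild type.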

Sequence | self-splicing fitness (ln) (30 °C) | self-splicing fitness (ln) (37 °C)
CGGGAGCAAUAUUACGUGUU | -5.29 ± 0.38 | -2.2 ± 0.25
CGGGAGCAAUAUUACGUUAG | -3.18 ± 0.26 | -1.9 ± 0.29
CGGGAGCAAUAUUACGUUCG | -3.74 ± 0.47 | -1.75 ± 0.27
CGGGAGCAAUAUUACGUUUG | -2.75 ± 0.17 | -2.11 ± 0.19
CGGUAGCAAUAUUACGAACU | -1.3 ± 0.17 | -0.755 ± 0.17
CGGUAGCAAUAUUACGAAGU | -2.86 ± 0.3 | -1.85 ± 0.25
CGGUAGCAAUAUUACGAUAU | -3.58 ± 0.31 | -1.33 ± 0.24
CGGUAGCAAUAUUACGAUGU | -0.932 ± 0.093 | -0.763 ± 0.15
CGGUAGCAAUAUUACGCAUU |  | -2.5 ± 0.24
CGGUAGCAAUAUUACGCCUA | -0.535 ± 0.14 | -0.215 ± 0.11
CGGUAGCAAUAUUACGCCUG | -1.32 ± 0.13 | -0.225 ± 0.11
CGGUAGCAAUAUUACGCGAU | -2.23 ± 0.35 | -2.41 ± 0.44
CGGUAGCAAUAUUACGCUCU | -2.71 ± 0.24 | -2.43 ± 0.33
CGGUAGCAAUAUUACGGACG | -0.708 ± 0.1 | -0.837 ± 0.13
CGGUAGCAAUAUUACGGGGU | -4.08 ± 0.3 | -2.81 ± 0.22
CGGUAGCAAUAUUACGGUUU | -3.36 ± 0.16 | -1.83 ± 0.15
CGGUAGCAAUAUUACGUACG | -1.3 ± 0.12 | -0.879 ± 0.16
CGGUAGCAAUAUUACGUAUG | -0.225 ± 0.092 | 0.297 ± 0.12
CGGUAGCAAUAUUACGUCAG | -0.671 ± 0.15 | -1.09 ± 0.17
CGGUAGCAAUAUUACGUCCG | -2.86 ± 0.3 | -2.02 ± 0.36
CGGUAGCAAUAUUACGUGAU | -1.49 ± 0.14 | -0.851 ± 0.18
CGGUAGCAAUAUUACGUGGC | -3.4 ± 0.17 | -3.09 ± 0.23
CGGUAGCAAUAUUACGUGUA | -3.31 ± 0.2 | -2.97 ± 0.28
CGGUAGCAAUAUUACGUUCG | -2.19 ± 0.14 | -1.99 ± 0.24
CGUAAGCAAUAUUACGAAUC |  | -2.06 ± 0.3

Sequence | self-splicing fitness (ln) (30 °C) | self-splicing fitness (ln) (37 °C)
CGUAAGCAAUAUUACGAGAG | -3.56 ± 0.22 | -3.14 ± 0.28
CGUAAGCAAUAUUACGAGCA | -1.84 ± 0.48 | -1.33 ± 0.22
CGUAAGCAAUAUUACGAUUG | -0.745 ± 0.079 | -0.605 ± 0.11
CGUAAGCAAUAUUACGCCGA | -3.5 ± 0.25 | -1.44 ± 0.14
CGUAAGCAAUAUUACGCGAA | -3.5 ± 0.24 | -3.88 ± 0.39
CGUAAGCAAUAUUACGCUAC |  | -1.98 ± 0.4
CGUAAGCAAUAUUACGCUUC |  | -2.52 ± 0.45
CGUAAGCAAUAUUACGGGAA | -3.04 ± 0.41 | -1.9 ± 0.44
CGUAAGCAAUAUUACGGUAG | -2.56 ± 0.14 | -1.4 ± 0.1
CGUAAGCAAUAUUACGGUCU | -2.56 ± 0.092 | -1.46 ± 0.081
CGUAAGCAAUAUUACGGUUG | -0.897 ± 0.061 | -0.159 ± 0.078
CGUAAGCAAUAUUACGUAGG | -1.09 ± 0.082 | -0.149 ± 0.11
CGUAAGCAAUAUUACGUCAU | -3.23 ± 0.17 | -2.38 ± 0.17
CGUAAGCAAUAUUACGUUGG | -1.93 ± 0.12 | -0.912 ± 0.13
CGUCAGCAAUAUUACGAAAU | -3.61 ± 0.23 | -2.6 ± 0.22
CGUCAGCAAUAUUACGAAUA | -2.58 ± 0.16 | -1.98 ± 0.16
CGUCAGCAAUAUUACGAAUG | -0.494 ± 0.077 | -0.0535 ± 0.093
CGUCAGCAAUAUUACGAGCA | -0.74 ± 0.14 | -0.627 ± 0.14
CGUCAGCAAUAUUACGAUAC | -2.65 ± 0.14 | -1.38 ± 0.12
CGUCAGCAAUAUUACGCACG | -2.16 ± 0.11 | -1.22 ± 0.12
CGUCAGCAAUAUUACGCAUG | -1.06 ± 0.07 | 0.0876 ± 0.082
CGUCAGCAAUAUUACGCCAG | -0.944 ± 0.15 | -0.48 ± 0.23
CGUCAGCAAUAUUACGCGCA | -1.1 ± 0.14 | -0.181 ± 0.13
CGUCAGCAAUAUUACGCGUG | -0.575 ± 0.054 | -0.39 ± 0.066
CGUCAGCAAUAUUACGCUAU | -3.14 ± 0.19 | -1.55 ± 0.17

Sequence | self-splicing fitness (ln) (30 °C) | self-splicing fitness (ln) (37 °C)
CGUCAGCAAUAUUACGGCGC | -3.38 ± 0.37 | -1.3 ± 0.35
CGUCAGCAAUAUUACGGGAC | -3.95 ± 0.25 | -1.73 ± 0.23
CGUCAGCAAUAUUACGGGAG | -2.36 ± 0.098 | -0.946 ± 0.11
CGUCAGCAAUAUUACGGGUU | -3.44 ± 0.17 | -2.56 ± 0.15
CGUCAGCAAUAUUACGGUAU | -2.04 ± 0.11 | -2.59 ± 0.16
CGUCAGCAAUAUUACGGUGA | -2.52 ± 0.11 | -2.81 ± 0.16
CGUCAGCAAUAUUACGGUUU | -2.39 ± 0.098 | -1.97 ± 0.097
CGUCAGCAAUAUUACGUAUG | -0.163 ± 0.12 | 0.188 ± 0.13
CGUCAGCAAUAUUACGUCCG | -1.03 ± 0.11 | -0.273 ± 0.14
CGUCAGCAAUAUUACGUCCU | -1.88 ± 0.081 | -1.27 ± 0.098
CGUCAGCAAUAUUACGUCUU | -2.3 ± 0.14 | -0.743 ± 0.11
CGUCAGCAAUAUUACGUGAU | -2.04 ± 0.1 | -1.18 ± 0.13
CGUCAGCAAUAUUACGUGCA | -0.497 ± 0.057 | -0.0444 ± 0.072
CGUCAGCAAUAUUACGUGCC | -0.61 ± 0.16 | 0.32 ± 0.19
CGUCAGCAAUAUUACGUGUC | -3.72 ± 0.17 | -2.96 ± 0.19
CGUGAGCAAUAUUACGAACA | -0.649 ± 0.15 | -0.766 ± 0.17
CGUGAGCAAUAUUACGACCA |  | -0.768 ± 0.24
CGUGAGCAAUAUUACGACCG | -3.79 ± 0.33 | -1.39 ± 0.27
CGUGAGCAAUAUUACGACGA | -1.92 ± 0.12 | -0.885 ± 0.12
CGUGAGCAAUAUUACGACGG | -0.058 ± 0.098 | 0.525 ± 0.11
CGUGAGCAAUAUUACGAGAA | -3.1 ± 0.34 | -2.08 ± 0.24
CGUGAGCAAUAUUACGAUAG | -1.13 ± 0.1 | -0.217 ± 0.15
CGUGAGCAAUAUUACGAUCC | -2.65 ± 0.25 | -0.358 ± 0.25
CGUGAGCAAUAUUACGAUCU | -0.613 ± 0.088 | -0.995 ± 0.14
CGUGAGCAAUAUUACGAUGU | -1.56 ± 0.16 | -2.29 ± 0.25

Sequence | self-splicing fitness (ln) (30 °C) | self-splicing fitness (ln) (37 °C)
CGUGAGCAAUAUUACGCAAG | -2.85 ± 0.15 | -0.853 ± 0.13
CGUGAGCAAUAUUACGCACA | -1.32 ± 0.16 | -0.702 ± 0.18
CGUGAGCAAUAUUACGCCAC | -1.74 ± 0.35 | 
CGUGAGCAAUAUUACGCCCA |  | -2.03 ± 0.46
CGUGAGCAAUAUUACGCGAA | -2.35 ± 0.14 | -3.33 ± 0.29
CGUGAGCAAUAUUACGCGAU | -2.75 ± 0.23 | -1.35 ± 0.24
CGUGAGCAAUAUUACGCUCG | -2.69 ± 0.26 | -2.64 ± 0.24
CGUGAGCAAUAUUACGCUGG | -1.7 ± 0.15 | -1.47 ± 0.18
CGUGAGCAAUAUUACGGAUU | -4.38 ± 0.36 | -3.78 ± 0.46
CGUGAGCAAUAUUACGGCGG | 0.333 ± 0.089 | 0.466 ± 0.11
CGUGAGCAAUAUUACGGGGG | -2.65 ± 0.29 | -3.28 ± 0.37
CGUGAGCAAUAUUACGGGUA |  | -2.39 ± 0.38
CGUGAGCAAUAUUACGUAAG | -0.896 ± 0.1 | -1.14 ± 0.15
CGUGAGCAAUAUUACGUCGA | -1.75 ± 0.29 | -3.3 ± 0.3
CGUUAGCAAUAUUACGAAAG | -1.11 ± 0.13 | -0.689 ± 0.18
CGUUAGCAAUAUUACGAAGC | -2.28 ± 0.43 | 
CGUUAGCAAUAUUACGAAGG | -1.69 ± 0.1 | -0.895 ± 0.11
CGUUAGCAAUAUUACGACGU | -2.74 ± 0.14 | -2.05 ± 0.16
CGUUAGCAAUAUUACGAGAG | -2.83 ± 0.25 | 0.0196 ± 0.17
CGUUAGCAAUAUUACGAGAU | -2.01 ± 0.23 | -2.33 ± 0.35
CGUUAGCAAUAUUACGAGUA | -3.68 ± 0.37 | -2.67 ± 0.36
CGUUAGCAAUAUUACGAUAU | -3.41 ± 0.14 | -2.22 ± 0.14
CGUUAGCAAUAUUACGAUGU | -2.6 ± 0.26 | -1.78 ± 0.36
